Data reported in US8466270B2, “Methods for using artificial polynucleotides and compositions thereof to reduce transgene silencing” (Monsanto Technology LLC, priority 2002, dated 2013).

Columns and labels:
[1] = system: transgenic cotton plants; test: Cotton transformation (transformation efficiency, insert number); assay type: cell-based; settings: relative to pMON20999
Method: (§1) Three plasmid constructs are evaluated in transgenic cotton plants (Table 21). The control construct (pMON20999) contains P-FMV/CP4EPSPS_Syn this expression cassette is contained in the commercially available glyphosate tolerant cotton line 1445 (Roundup Ready® cotton, Monsanto Co., St. Louis, Mo.). The plasmid constructs, pMON59313 and pMON59396 containing the CP4EPSPS_AT and CP4EPSPS_ZM polynucleotides, respectively, are assayed for transformation efficiency and CP4EPSPS enzyme levels relative to the commercial glyphosate tolerant expression cassette. About fifty transgenic cotton lines are evaluated for each construct.

[2] = system: transgenic cotton plants; test: CP4EPSPS ELISA, enzyme level in R0 cotton lines; assay type: in vivo; settings: relative to pMON20999 expression cassette
Method: as §1

[3] = system: CP4EPSPS polynucleotide; test: PCR detection of artificial CP4EPSPS polynucleotides in transgenic plants; design: species or system corn; settings: amplicon size obtained with the primer pair specific for the gene; second figure in brackets
From the text: A DNA detection method (polymerase chain reaction, PCR) is designed to detect the artificial CP4EPSPS polynucleotides in transgenic plants. The unique sets of DNA primers shown in Table 26 are designed to amplify a specific CP4EPSPS polynucleotide and to provide distinctly sized amplicons. The amplicons differ sufficiently in polynucleotide length among the various CP4EPSPS polynucleotides to make easy separation of the amplicons by standard agarose gel electrophoresis. The presence of more than one of the artificial polynucleotides can be detected in a plant by using a multiplex PCR method.
DNA primer pairs (Table 26) are used to produce an amplicon diagnostic for a specified CP4EPSPS polynucleotide contained in a transgenic plant. These primer pairs include, but are not limited to SEQ ID NO:24 and SEQ ID NO:25 for the CP4EPSPS_AT polynucleotide; SEQ ID NO:26 and SEQ ID NO:27 for the CP4EPSPS_ZM; SEQ ID NO:28 and SEQ ID NO:29 for CP4EPSPS_Nat and SEQ ID NO:30 and SEQ ID NO:31 CP4EPSPS_Syn polynucleotide molecule. In addition to these primer pairs, any primer pair derived from SEQ ID NO:17 or SEQ ID NO:18 that when used in a DNA amplification reaction produces a DNA amplicon diagnostic for the respective CP4EPSPS polynucleotide is an aspect of the present invention. […]

[4] = system: Wheat plants; test: CP4EPSPS enzyme expression in wheat leaves by ELISA; assay type: in vivo
From the text: Wheat plants transformed with the new CP4EPSPS polynucleotides are compared for transformation efficiency and CP4EPSPS enzyme expression determined by ELISA (Table 25). […] The average expression of CP4EPSPS in leaves from wheat plants containing the CP4EPSPS_ZM polynucleotide is about 64% of that found in glyphosate resistant wheat that contains a double cassette construct, pMON30139: P-e35S/1-Hsp70/CP4EPSPS_Nat and P-OsAct1/I-OsAct1/CP4EPSPS_Nat (WO/0022704).

[5] = system: transgenic soybean plants; test: CP4EPSPS enzyme level in transgenic soybean plants; assay type: in vivo
Method: Constructs containing the artificial CP4EPSPS polynucleotides, CP4EPSPS_AT and CP4EPSPS_ZM are evaluated in soybean (Table 22). The plasmid constructs all contain the P-FMV promoter to drive expression of the new CP4EPSPS polynucleotides and are compared to the P-FMV/CP4EPSPS_Syn contained in pMON20999. About 25 to 30 transgenic soybean plants are produced for each construct. The transformation efficiency and CP4EPSPS enzyme, levels are measured.

B1: CP4EPSPS_AT: Artificial polynucleotide encoding the CP4EPSPS protein using the Arabidopsis codon usage table (nucleic acid, listed as Agrobacterium tumefaciens)
DNA: ATGCTTCATGGAGCTTCATCTAGGCCAGCTACTGCCAGGAAGTCTAGCGGGCTCAGTGGCACCGTGCGCATCCCTGGCGATAAAAGTATTTCACACAGGAGCTTCATGTTCGGAGGACTTGCTAGTGGAGAGACGAGAATCACTGGTTTGCTTGAGGGCGAAGATGTTATCAACACCGGTAAGGCGATGCAAGCAATGGGTGCCAGAATCCGAAAAGAGGGCGATACGTGGATCATCGACGGTGTTGGTAACGGAGGATTGCTCGCTCCCGAAGCGCCACTTGACTTTGGGAACGCAGCTACGGGGTGCCGTCTTACTATGGGACTGGTAGGCGTGTATGACTTTGACTCTACCTTCATCGGTGACGCGAGCCTCACTAAGAGACCAATGGGACGAGTGCTGAATCCCCTGAGGGAGATGGGTGTCCAGGTGAAATCTGAGGATGGTGATCGTCTTCCGGTTACTCTGCGAGGCCCCAAGACCCCCACGCCAATCACGTACAGGGTTCCGATGGCGTCAGCACAGGTCAAGTCAGCGGTACTCCTGGCGGGCCTCAACACACCTGGAATCACAACCGTGATTGAACCCATCATGACTAGAGACCACACGGAGAAGATGTTGCAGGGTTTCGGCGCTAATCTAACGGTCGAAACCGACGCCGACGGCGTGAGGACAATCCGCTTGGAGGGCAGAGGTAAACTGACTGGCCAAGTCATCGATGTGCCTGGAGATCCCTCGTCCACAGCGTTTCCCCTCGTAGCTGCGTTGCTCGTCCCTGGATCTGATGTGACGATCCTGAATGTCCTCATGAATCCAACTAGAACCGGCCTCATCCTCACATTGCAGGAGATGGGTGCTGACATCGAGGTTATCAATCCTAGGTTGGCAGGTGGAGAGGATGTGGCCGATCTGCGCGTGCGTTCTAGTACACTCAAAGGCGTGACCGTCCCTGAGGATCGCGCTCCATCCATGATCGACGAGTACCCCATTCTCGCCGTTGCTGCTGCGTTTGCCGAGGGCGCAACTGTAATGAACGGCCTTGAGGAGTTGAGGGTTAAGGAGAGTGACAGGCTGTCCGCGGTGGCGAATGGCCTGAAGCTAAACGGCGTGGACTGCGACGAAGGTGAAACGTCCCTTGTAGTCCGTGGTCGCCCAGACGGGAAGGGGTTGGGGAATGCTTCGGGAGCTGCTGTGGCGACGCACCTTGATCATAGAATCGCCATGTCATTTCTGGTGATGGGACTTGTCTCCGAGAATCCGGTGACCGTTGACGATGCTACCATGATCGCCACCTCCTTTCCTGAGTTCATGGACCTCATGGCAGGCTTGGGGGCCAAGATCGAGCTGTCTGATACTAAGGCCGCTTGA
percentage of plants with a single insert [1]: higher percentage of plants with a single insert | expression level of the CP4EPSPS enzyme (in words) [2]: increase in expression level | PCR product (bps) [3]: 938 (940) bps

B2: CP4EPSPS_ZM: Artificial polynucleotide encoding the CP4EPSPS protein using the Zea mays codon usage table (nucleic acid, listed as Agrobacterium tumefaciens)
DNA: ATGCTACACGGTGCAAGCAGCCGGCCGGCAACCGCTCGCAAATCTTCCGGCCTTTCGGGAACGGTCAGGATTCCGGGCGATAAGTCCATATCCCACCGGTCGTTCATGTTCGGCGGTCTTGCCAGCGGTGAGACGCGCATCACGGGCCTGCTTGAAGGTGAGGACGTGATCAATACCGGGAAGGCCATGCAGGCTATGGGAGCGCGTATCCGCAAGGAAGGTGACACATGGATCATTGACGGCGTTGGGAATGGCGGTCTGCTCGCCCCTGAGGCCCCTCTCGACTTCGGCAATGCGGCGACGGGCTGCAGGCTCACTATGGGACTGGTCGGGGTGTACGACTTCGATAGCACGTTCATCGGAGACGCCTCGCTCACAAAGCGCCCAATGGGCCGCGTTCTGAACCCGTTGCGCGAGATGGGCGTACAGGTCAAATCCGAGGATGGTGACCGTTTGCCCGTTACGCTGCGCGGGCCGAAGACGCCTACCCCGATTACCTACCGCGTGCCAATGGCATCCGCCCAGGTCAAGTCAGCCGTGCTCCTCGCCGGACTGAACACTCCGGGCATCACCACGGTGATCGAGCCCATCATGACCAGGGATCATACCGAAAAGATGCTTCAGGGGTTTGGCGCCAACCTGACGGTCGAGACGGACGCTGACGGCGTCAGGACCATCCGCCTTGAGGGCAGGGGTAAACTGACTGGCCAAGTCATCGATGTTCCGGGAGACCCGTCGTCCACGGCCTTCCCGTTGGTTGCGGCGCTGCTCGTGCCGGGGAGTGACGTGACCATCCTGAACGTCCTCATGAACCCGACCAGGACCGGCCTGATCCTCACGCTTCAGGAGATGGGAGCCGACATCGAGGTGATCAACCCGCGCCTGGCAGGCGGTGAAGACGTTGCGGATCTGCGCGTGCGCTCCTCTACCCTGAAGGGCGTGACGGTCCCGGAAGATCGCGCGCCGTCCATGATAGACGAGTATCCTATTCTGGCCGTCGCCGCTGCGTTCGCCGAAGGGGCCACGGTCATGAACGGTCTTGAGGAACTCCGCGTGAAGGAATCGGATCGCCTGTCGGCGGTGGCCAATGGCCTGAAGCTCAACGGTGTTGACTGCGACGAGGGTGAGACCTCACTCGTGGTCCGTGGCCGGCCTGATGGCAAGGGCCTCGGCAACGCCAGTGGAGCGGCCGTCGCCACGCACCTCGATCATCGCATCGCGATGTCCTTCTTGGTGATGGGTCTCGTCTCAGAGAACCCGGTGACCGTCGATGACGCCACGATGATAGCGACGAGCTTCCCAGAGTTCATGGATCTGATGGCGGGCCTCGGGGCCAAGATCGAACTGTCTGACACGAAGGCCGCTTGA
CP4EPSPS enzyme expression relative to CP4EPSPS_AT ([4]; wheat): at least seven times higher | CP4 Exp. (%) CP4EPSPS expression ([4]; wheat leaves, relative to pMON30139 double cassette wheat, ELISA): about 64% | expression level of CP4EPSPS protein (in words) [5]: surprisingly high expression level | PCR product (bps) [3]: 595 (600) bps
